The source of these data is the FLAb antibody collection.

Numbering of substitutions follows the chain as printed. “And” between values parts separate entries of the source, which are not always exact repeats. Identical values can stand only once.

To fix the notation:
B1: unnamed (protein)
chain 1: QVQLQESGPGLVKPSETLSLTCTVSGGSVSSGDYYWTWIRQSPGKGLEWIGHIYYSGNTNYNPSLKSRLTISIDTSKTQFSLKLSSVTAADTAIYYCVRDRVTGAFDIWGQGTMVTVSS
chain 2: DIQMTQSPSSLSASVGDRVTITCQASQDISNYLNWYQQKPGKAPKLLIYDASNLETGVPSRFSGSGSGTDFTFTISSLQPEDIATYFCQHFDHLPLAFGGGTKVEIK
B2: unnamed (protein)
chain 1: QVQLVQSGVEVKKPGASVKVSCKASGYTFTNYYMYWVRQAPGQGLEWMGGINPSNGGTNFNEKFKNRVTLTTDSSTTTAYMELKSLQFDDTAVYYCARRDYRFDMGFDYWGQGTTVTVSS
chain 2: EIVLTQSPATLSLSPGERATLSCRASKGVSTSGYSYLHWYQQKPGQAPRLLIYLASYLESGVPARFSGSGSGTDFTLTISSLEPEDFAVYYCQHSRDLPLTFGGGTKVEIK
B3: unnamed (protein)
chain 1: QVQLQQSGAELVKPGASVKLSCKASGYTFTSYDINWVRQRPEQGLEWIGWIFPGDGSTKYNEKFKGKATLTTDKSSSTAYMQLSRLTSEDSAVYFCAREDYYDNSYYFDYWGQGTTLTVSS
chain 2: DIQMTQTTSSLSASLGDRVTISCRASQDISNYLNWYQQKPDGTVKLLIYYTSRLHSGVPSRFSGSGSGTDYSLTISNLEQEDIATYFCQQGNTLPWTFGGGTKLEIK
B4: unnamed (protein)
chain 1: EVQLVQSGAEVKKPGESLKISCKGSGYSFTGYNMNWVRQMPGKGLEWMGNIDPYYGGTTYNRKFKGQVTISADKSISTAYLQWSSLKASDTAMYYCARSVGPFDSWGQGTLVTVSS
chain 2: EIVLTQSPATLSLSPGERATLSCRASENVYSYLAWYQQKPGQAPRLLIYFAKTLAEGIPARFSGSGSGTDFTLTISSLEPEDFAVYYCQHHSDNPWTFGQGTKVEIK
B5: unnamed (protein)
chain 1: EVQLVESGGGLVQPGGSMRLSCVASGFPFSNYWMNWVRQAPGKGLEWVGEIRLKSNNYTTHYAESVKGRFTISRDDSKNSLYLQMNSLKTEDTAVYYCTRHYYFDYWGQGTLVTVSS
chain 2: DIVMTQSPLSNPVTPGEPASISCRSSKSLLHSNGITYFFWYLQKPGQSPQLLIYQMSNLASGVPDRFSGSGSGTDFTLRISRVEAEDVGVYYCAQNLELPPTFGQGTKVEIK
B6: unnamed (protein)
chain 1: QVQLVQSGAEVKKPGASVKVSCKASGYIFSNYWIQWVRQAPGQGLEWMGEILPGSGSTEYAQKFQGRVTMTADTSTSTAYMELSSLRSEDTAVYYCARYFFGSSPNWYFVWGQGT
chain 2: DIQMTQSPSLSASVGDRVTITCGASENIYGALNWYQRKPGKAPKLLIYGATNLADGVPSRFSGSGSGTDYTLTISSLQPEDFATYYCQNVLNTPLTFGQGTKVEIK
B7: unnamed (protein)
chain 1: EVQLVESGGGLVQPGGSLRLSCAASGYTFIDYYMNWVRQAPGKGLEWVGDINLDNSGTHYNQKFKGRFTISRDKSKNTAYLQMNSLRAEDTAVYYCAREGVYHDYDDYAMDYWGQGTLVTVSS
chain 2: DIQMTQSPSSLSASVGDRVTITCRTSQSLVHINAITYLHWYQQKPGKAPKLLIYRVSNRFSGVPSRFSGSGSGTDFTLTISSLQPEDFATYYCGQSTHVPLTFGQGTKVEIK
B8: unnamed (protein)
chain 1: QVTLRESGPALVKPTQTLTLTCTFSGFSLSTSGMSVGWIRQPPGKALEWLADIWWDDKKDYNPSLKSRLTISKDTSKNQVVLKVTNMDPADTATYYCARSMITNWYFDVWGAGTTVTVSS
chain 2: DIQMTQSPSTLSASVGDRVTITCKCQLSVGYMHWYQQKPGKAPKLLIYDTSKLASGVPSRFSGSGSGTEFTLTISSLQPDDFATYYCFQGSGYPFTFGGGTKLEIK
B9: unnamed (protein)
chain 1: EVQLVESGGGLVQPGGSLRLSCAASGFTFSNYGMSWVRQAPGKGLEWVASISSGGGSTYYPDNVKGRFTISRDDAKNSLYLQMNSLRAEDTAVYYCARGGAGIDYWGQGTLVTVSS
chain 2: DIQMTQSPSSLSASVGDRVTITCKSIQTLLYSSNQKNYLAWFQQKPGKAPKLLIYWASIRKSGVPSRFSGSGSGTDFTLTISSLQPEDLATYYCQQYYSYPLTFGGGTKLEIK
B10: unnamed (protein)
chain 1: QVQLVQSGAEVKKPGASVKVSCKASGYTFTSYWMHWVRQAPGQGLEWIGNINPSNGGTNYNEKFKSKATMTRDTSTSTAYMELSSLRSEDTAVYYCELMQGYWGQGTLVTVSS
chain 2: DIVMTQSPLSNPVTLGQPVSISCRSSKSLLYKDGKTYLNWFLQRPGQSPQLLIYLMSTRASGVPDRFSGGGSGTDFTLKISRVEAEDVGVYYCQQLVEYPLTFGQGTKLEIK
B11: unnamed (protein)
chain 1: EGQLVQSGGGLVHPGGSLRLSCAGSGFTFSSYGMHWVRQAPGKGLEWVSGIGTGGGTYSTDSVKGRFTISRDNAKNSLYLQMNSLRAEDMAVYYCARGDYYGSGSFFDCWGQGTLVTVSS
chain 2: DIQMTQSPSSLSASVGDRVTITCRASQGISSWLAWYQQKPEKAPKSLIYAASSLQSGVPSRFSGSGSGTDFTLTISSLQPEDFATYYCQQYNSYPPTFGQGTKLEIK
B12: unnamed (protein)
chain 1: EVQLVESGGGLVQPGGSLRLSCAASGFTFSSYWMSWVRQAPGKGLEWVAYIKQDGNEKYYVDSVKGRFTISRDNAKNSLYLQMNSLRAEDTAVYYCAREGILWFGDLPTFWGQGTLVTVSS
chain 2: B11 chain 2 with S31N, N92D, P96R, L104V
B13: unnamed (protein)
chain 1: EVQLLESGGGLVQPGGSLRLSCAASGFTFSSYIMMWVRQAPGKGLEWVSSIYPSGGITFYADTVKGRFTISRDNSKNTLYLQMNSLRAEDTAVYYCARIKLGTVTTVDYWGQGTLVTVSS
chain 2: QSALTQPASVSGSPGQSITISCTGTSSDVGGYNYVSWYQQHPGKAPKLMIYDVSNRPSGVSNRFSGSKSGNTASLTISGLQAEDEADYYCSSYTSSSTRVFGTGTKVTVL
B14: unnamed (protein)
chain 1: QVQLVQSGAEVKKPGASVKVSCKASGYYTEAYYIHWVRQAPGQGLEWMGRIDPATGNTKYAPRLQDRVTMTRDTSTSTVYMELSSLRSEDTAVYYCASLYSLPVYWGQGTTVTVSS
chain 2: DVVMTQSPLSLPVTLGQPASISCKSSQSLLYSDAKTYLNWFQQRPGQSPRRLIYQISRLDPGVPDRFSGSGSGTDFTLKISRVEAEDVGVYYCLQGTHYPVLFGQGTRLEIK
B15: unnamed (protein)
chain 1: EVQLVQSGGGLVKPGGSLRLSCAASGFTFSSYSMNWVRQAPGKGLEWVSSISSSSSYIYYADSVKGRFTISRDNAKNSLYLQMNSLRAEDTAVYYCARVTDAFDIWGQGTMVTVSS
chain 2: DIQMTQSPSSVSASIGDRVTITCRASQGIDNWLGWYQQKPGKAPKLLIYDASNLDTGVPSRFSGSGSGTYFTLTISSLQAEDFAVYFCQQAKAFPPTFGGGTKVDIK
B16: unnamed (protein)
chain 1: EVQLVESGGGLVQPGGSLRLSCAASGYTFSSYWIEWVRQAPGKGLEWIGEILPGGGDTNYNEIFKGRATFSADTSKNTAYLQMNSLRAEDTAVYYCTRRVPIRLDYWGQGTLVTVSS
chain 2: DIQLTQSPSSLSASVGDRVTITCKASQSVDYEGDSFLNWYQQKPGKAPKLLIYAASNLESGVPSRFSGSGSGTDFTLTISSLQPEDFATYYCQQSNEDPLTFGQGTKVEIK
B17: unnamed (protein)
chain 1: EVQLVESGGGLVQPGGSLRLSCAASGYEFSRSWMNWVRQAPGKGLEWVGRIYPGDGDTNYSGKFKGRFTISADTSKNTAYLQMNSLRAEDTAVYYCARDGSSWDWYFDVWGQGTLVTVSS
chain 2: DIQMTQSPSSLSASVGDRVTITCRSSQSIVHSVGNTFLEWYQQKPGKAPKLLIYKVSNRFSGVPSRFSGSGSGTDFTLTISSLQPEDFATYYCFQGSQFPYTFGQGTKVEIK
B18: unnamed (protein)
chain 1: EVQLVESGGGLVQPGGSLRLSCAASGYTFTSYVIHWVRQAPGKGLEWVGYNNPYNAGTNYNEKFKGRFTISSDKSKNTAYLQMNSLRAEDTAVYYCSRPTMLPWFAYWGQGTLVTVSS
chain 2: DIQMTQSPSSLSASVGDRVTITCRASQAVSSAVAWYQQKPGKAPKLLIYSASHRYTGVPSRFSGSGSGTDFTLTISSLQPEDFATYYCQESYSTPWTFGQGTKVEIK
B19: unnamed (protein)
chain 1: EVQLVESGGGLVQPGGSLRLSCAASGFTFTDYTMDWVRQAPGKGLEWVADVNPNSGGSIYNQRFKGRFTLSVDRSKNTLYLQMNSLRAEDTAVYYCARNLGPSFYFDYWGQGTLVTVSS
chain 2: B18 chain 2 with R24K, A28D, S31I, A32G, H53Y, E90Q, S91Y, S93I, T94Y, W96Y

A short description of the data set: patients with anti-drug antibodies; higher = more immunogenic.
With B1, the “patients with anti-drug antibodies” value came to 2.8%.

For B2, the “patients with anti-drug antibodies” value was determined as 1.7%.

For the protein B3, the “patients with anti-drug antibodies” value turned out to be 85%.

For the protein B4, the “patients with anti-drug antibodies” value is 5%.

Consider B5, for which the “patients with anti-drug antibodies” value is 25% and 9.5%.

With B6, the “patients with anti-drug antibodies” value stood at 0%.

B7: the “patients with anti-drug antibodies” value was determined as 4.7%.

Take B8: the “patients with anti-drug antibodies” value came out at 1.1%.

Take B9: the “patients with anti-drug antibodies” value was determined as 0%.

As for B10, the “patients with anti-drug antibodies” value was 2.5%.

Consider B11, for which the “patients with anti-drug antibodies” value was found to be 0%.

In the case of B12, the “patients with anti-drug antibodies” value is 0%.

B13: the “patients with anti-drug antibodies” value was 5%.

Regarding B14, the “patients with anti-drug antibodies” value turned out to be 0%.

Take B15: the “patients with anti-drug antibodies” value turned out to be 4.1%.

Regarding B16, the “patients with anti-drug antibodies” value was found to be 2.6%.

As to B17, the “patients with anti-drug antibodies” value came to 1.4%.

As for B18, the “patients with anti-drug antibodies” value was determined as 4.7%.

For the protein B19, the “patients with anti-drug antibodies” value was found to be 2.8%.
